Experimental data reported in patent US20100040611A1 (Merck Sharp & Dohme, published 2010).
Where two headings read alike, the source gives them in different places. Blank lines part the entries; values can stand above or below the binder they belong to.

Columns and labels:
Experiment in all cases: cell-based or functional assay
[1] = biological target: T1, recombinant human PCSK9, V5-, His-tagged (human, UniProt Q8NBP7 31-692, limits assumed)
[2] = biological target: T1, recombinant human PCSK9, V5-, His-tagged; remark: listed apart in the source
[3] = biological target: T1, recombinant human PCSK9, V5-, His-tagged; remark: listed apart in the source
[4] = biological target: T1, recombinant human PCSK9, V5-, His-tagged; remark: listed apart in the source
[5] = biological target: T1, recombinant human PCSK9, V5-, His-tagged; remark: listed apart in the source

T1 sequence (Q8NBP7 31-692 limits assumed): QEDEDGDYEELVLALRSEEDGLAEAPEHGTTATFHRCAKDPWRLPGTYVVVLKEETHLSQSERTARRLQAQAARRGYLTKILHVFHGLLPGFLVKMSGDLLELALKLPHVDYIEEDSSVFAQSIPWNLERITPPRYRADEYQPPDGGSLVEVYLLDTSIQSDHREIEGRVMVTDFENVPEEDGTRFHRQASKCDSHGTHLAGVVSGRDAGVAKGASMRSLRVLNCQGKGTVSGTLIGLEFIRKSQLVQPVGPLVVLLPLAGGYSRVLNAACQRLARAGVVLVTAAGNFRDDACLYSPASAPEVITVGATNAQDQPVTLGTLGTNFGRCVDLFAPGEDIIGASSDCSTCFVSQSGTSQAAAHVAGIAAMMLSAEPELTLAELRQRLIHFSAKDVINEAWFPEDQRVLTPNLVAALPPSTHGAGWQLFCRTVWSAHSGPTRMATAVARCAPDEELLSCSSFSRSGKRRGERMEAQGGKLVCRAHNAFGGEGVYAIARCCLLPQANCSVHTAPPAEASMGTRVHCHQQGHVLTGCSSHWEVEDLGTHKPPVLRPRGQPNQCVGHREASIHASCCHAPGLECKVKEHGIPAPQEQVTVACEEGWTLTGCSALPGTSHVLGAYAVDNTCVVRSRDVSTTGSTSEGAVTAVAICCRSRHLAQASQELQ

IC50: reversal of PCSK9-dependent loss of cellular diI-LDL uptake (Exopolar assay), Fab titrated against a fixed 25 µg/ml PCSK9 [2]: 127 nM
B2: 3CX4B08 (Fab, V domains shown)
VH: QVQLVESGGGLVQPGGSLRLSCAASGFTFSNYTMNWVRQAPGKGLEWVSFISSSSSETYYADSVKGRFTISRDNSKNTLYLQMNSLRAEDTAVYYCARGYGDMVDLWGQGTLVTVSS
VL: DIELTQPPSVSVAPGQTARISCSGDSIPTYYVAWYQQKPGQAPVLVIYSDTDRPSGIPERFSGSNSGNTATLTISGTQAEDEADYYCQSFDNHGYHVFGGGTKLTVLG

IC50: reversal of PCSK9-dependent loss of cellular diI-LDL uptake (Exopolar assay), Fab titrated against a fixed 25 µg/ml PCSK9 [5]: 269 nM
B5: 3CX3D02 (Fab, V domains shown)
VH: QVQLVQSGAEVKKPGESLKISCKGSGYSFTNSWIGWVRQMPGKGLEWMGIIYPSDSYTIYSPSFQGQVTISADKSISTAYLQWSSLKASDTAMYYCARGGGYYYALMDVWAQGTLVTVSS
VL: DIQMTQSPSSLSASVGDRVTITCRASQTISTWLNWYQQKPGKAPKLLIYAASSLQSGVPSRFSGSGSGTDFTLTISSLQPEDFATYYCLQDSSLPLTFGQGTKVEIKR

Continued, binder first:

B1: 3BX5C01 (Fab, V domains shown)
VH: QVQLVQSGAEVKKPGESLKISCKGSGYSFTSYGISWVRQMPGKGLEWMGMIDPSDSFTTYSPSFQGQVTISADKSISTAYLQWSSLKASDTAMYYCARGYYFTYALQPMDHWGQGTLVTVSS
VL: DIELTQPPSVSVAPGQTARISCSGDNLRDYIVHWYQQKPGQAPVLVIYDDSNRPSGIPERFSGSNSGNTATLTISGTQAEDEADYYCGFDNGGDIDVFGGGTKLTVLG
IC50: reversal of PCSK9-dependent loss of cellular diI-LDL uptake (Exopolar assay), Fab titrated against a fixed 25 µg/ml PCSK9 [1]: 1250 nM

B3: 1CX1G08 (Fab, V domains shown)
VH: QVQLVESGGGLVQPGGSLRLSCAASGFTFSDYWVSWVRQAPGKGLEWVSFISYDGSSTYYADSVKGRFTISRDNSKNTLYLQMNSLRAEDTAVYYCARTYFEGVDVWGQGTLVTVSS
VL: DIELTQPPSVSVAPGQTARISCSGDNIGTYYVHWYQQKPGQAPVLVIYDDSNRPSGIPERFSGSNSGNTATLTISGTQAEDEADYYCGTWDNTSFNLVFGGGTKLTVLG
IC50: reversal of PCSK9-dependent loss of cellular diI-LDL uptake (Exopolar assay), Fab titrated against a fixed 25 µg/ml PCSK9 [3]: 267 nM

B4: 3CX2A06 (Fab, V domains shown)
VH: QVQLVQSGAEVKKPGESLKISCKGSGYSFSNFWIAWVRQMPGKGLEWMGIIDPSDSWTRYSPSFQGQVTISADKSISTAYLQWSSLKASDTAMYYCARGDGQDFDNWGQGTLVTVSS
VL: DIQMTQSPSSLSASVGDRVTITCRASQNINSYLNWYQQKPGKAPKLLIYAASSLQSGVPSRFSGSGSGTDFTLTISSLQPEDFAVYYCLQNYDLPNTFGQGTKVEIKR
IC50: reversal of PCSK9-dependent loss of cellular diI-LDL uptake (Exopolar assay), Fab titrated against a fixed 25 µg/ml PCSK9 [4]: 107 nM
